The values below come from paper PMC10850359, “A mediator of OsbZIP46 deactivation and degradation negatively regulates seed dormancy in rice”.

The target of this series is T1, His::ABI5 (Oryza sativa (rice), UniProt Q8RZ35 1-388).
T1 sequence: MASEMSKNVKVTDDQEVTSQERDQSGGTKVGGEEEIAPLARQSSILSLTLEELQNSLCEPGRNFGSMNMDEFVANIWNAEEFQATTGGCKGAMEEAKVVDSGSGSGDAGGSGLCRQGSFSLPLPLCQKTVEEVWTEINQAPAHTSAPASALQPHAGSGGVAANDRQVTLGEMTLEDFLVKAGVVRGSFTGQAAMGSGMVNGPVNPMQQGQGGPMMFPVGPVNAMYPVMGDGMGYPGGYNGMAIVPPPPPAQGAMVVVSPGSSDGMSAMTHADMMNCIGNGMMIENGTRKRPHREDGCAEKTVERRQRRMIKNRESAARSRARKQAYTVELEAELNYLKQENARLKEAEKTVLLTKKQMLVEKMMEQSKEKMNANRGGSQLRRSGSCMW
In words: EMSA; Beyotime Chemiluminescent EMSA Kit; 2 ug His::ABI5, 1 uL biotin probe (1 ng), 25 C, 20 min; unlabeled probe (1 ng) as competitor; buffer, salt and pH not stated. The note with it: protein: recombinant; tags: His (pET28a); chain copies: 2; label: biotin; blunt. On the technique in general: Mobility shift assays separate free from complexed probe on a gel.

B1: EMSA-EM1-bio (dsDNA)
DNA 1: CATAGCTTGCGCACGTACGTGTCGCGCTCCGGCGG
DNA 2: CCGCCGGAGCGCGACACGTACGTGCGCAAGCTATG
As to B1, the binding result is recorded as “binds”.

B2: EMSA-LEA3-bio (dsDNA)
DNA 1: GATGACTTGGCATGCTCACGTGGCATTTTTTTTGGTCTAA
DNA 2: TTAGACCAAAAAAAATGCCACGTGAGCATGCCAAGTCATC
Take B2: the binding result is listed as “binds”.
